Laboratory results: the supplement of paper PMC9170038

Tested on: MS2 coat protein
Experiment: apparent KD of MS2 coat protein; higher = weaker reporter binding
Details: Eterna round: R107
Method in brief: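 Apparent KD is reported per design as the median of normalised binding-curve fits across its clusters. The RNA switches were made by on-chip transcription from Illumina sequencing clusters. SNAP-549-labelled MS2 coat protein was then added in twofold steps (0.7 or 1.5 nM to 3 µM; 0.8–1.5 h to 10–20 min per step) in 100 mM Tris-HCl pH 7.5, 80 mM KCl, 4 mM MgCl2, without or with constant ligand.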

[1] = input ligand: theophylline 20 uM
[2] = input ligand: theophylline 2 mM
[3] = input ligand: tryptophan 2.4 mM

Sequence | apparent KD of MS2 coat protein (input ligand: arginine 13.2 mM) [µM] | apparent KD of MS2 coat protein (input ligand: none) [µM] | apparent KD of MS2 coat protein [1] [µM] | apparent KD of MS2 coat protein [2] [µM] | apparent KD of MS2 coat protein [3] [µM]
GGACUAACCUGAAGGAGCGACACGCAGAAACUGCAAAUUCCUCCACACGAGGAUCACCCGUGUCAGGUAGGUCGCAGGUUAGUCG [ArgBX 28] | 0.019 | 0.0202 | 0.0257 | 0.0216 | 0.0192
GGACUAACCUGAAGGAGCGGCACGCAGAAACUGCAAAUUCCUCCACACGAGGAUCACCCGUGUCAGGUAGGUCGCAGGUUAGUCG [ArgBX 28] | 0.018 | 0.0171 | 0.0233 | 0.0229 | 0.0203
GGAUAGGACACGGCCGCCACUAUCUAGGAUACUAGCAACAUUUGGGUACUUGAGGAUCACCCAAGUAGGACCGGGUGUCCUAUCG | 0.0827 | 0.17 | 0.226 | 0.253 | 0.307
GGAUAGGACAGAAGGAGCGACAUGAGGAUCACCCAUGUCUACUACGUCGAAAGACGCUCAUGUCAGGUAGGUCGCUGUCCUAUCG [#28 Exclusion - Arginine B] | 0.0709 | 0.241 | 0.263 | 0.458 | 0.25
GGAUGAAACUGAAGGAGCGAGAUCACAAGAAUGGGUCAAACAUGAGGAUCACCCAUGUAAUCUCAGGUAGGUCGCAGUGUCCCUU [Exclusion Arginine B GF 11] | 0.0401 | 0.0404 | 0.0805 | 0.0551 | 0.0462
GGCACAUAGUCGGCCGCCACUAGAUUUUAGUGGAAUAACAUGAGGAUCACCCAUGUAUUUGGGACUAGGACCGGGACUAUGUGCC [Hyena] | 0.0345 |  | 0.0432 | 0.038 | 
GGGACACCGAGAAGGAGCGCAUCCAAACCACACAUGAGGAUCACCCAUGUAUAAAUAUGCAUGCAGGUAGGUCGCUCGGCGUCUC [Orordionbi] | 0.0765 | 0.12 | 0.112 | 0.134 | 0.111
GGGAGGGAGGCGGCCGCCACUGAUUUUCAUAUAUAUAUAACAUGAGGAUCACCCAUGUGGAUAUACAGGACCGGGCCUUUUUUUU [aaaH] | 0.0176 |  | 0.0301 | 0.0191 | 
GGGCGCUAUCCCGCGAGGGAUAGCGUUCGUCGAGGACCGGUACGGCCGCCACUCGAACGAGUGGUGACAUGAGGAUCACCCAUGU [Oaa] | 0.039 |  | 0.0552 | 0.0557 | 
GGGUACAUCACGGCCGCCACUCAUGUAAAUACAUGAGGAUCACCCAUGUCGAUGGAGACAUCGGAGAGGACCGGGUGAUGUACCG | 0.187 |  | 0.394 | 0.62 | 
GGGUAUGAUCCGGAUACCAGCGAACAUGAGGAUCACCCAUGUGACCUAAGAUAGGCUAAACGCCCUUGGCAGCCGAGAUUGCGUU [Same State Theophylline B GF7] | 0.0324 |  | 0.0497 |  | 0.041
GGGUGGUAGGCGGCCGCCACUGAUUUUCAUUUAUAGAUGACAUGAGGAUCACCCAUGUUUAUGUGCAGGACCGGGCCUGUUGUGG [aaaS] | 0.0431 | 0.0987 | 0.0742 | 0.113 | 0.0776
GGUACAUGAGGAUCACCCAUGUGUCAUGAUACCAGACAUGAAAAUGUCCCUUGGCAGCAUGCCUGAUGGCCGCGUUUAGCGGCCG [Liskovec] | 0.0158 | 0.0157 | 0.0195 | 0.0207 | 0.0162
GGUAGCAGGACUGAUACCAGUCCAGCGAAUCAUACGACGCAACAUGAGGAUCACCCAUGUGACCCUUGGCAGCAGUCUGCUACCG [Same State Theophylline B GF 29] | 0.0289 |  | 0.023 |  | 0.0257
GGUCACCUAUCCUCAUUGGUGACCCUGGAAGGAGCGAGCGAGAGCUCAGGUAGGUCGCCAGAACAUGAGGAUCACCCAUGUAAUA [(A)''-(M)'-(A)'(Arg1)-(Arg2)-(M1)-(M2)_Design12] | 0.0434 | 0.0949 | 0.12 | 0.111 | 0.0701
GGUCUCGCGGGCGAUACCAGCUUGAUCGUACUGGCCUGGUACAUGAGGAUCACCCAUGUAAGCCCUUGGCAGCGCGCGCGAGACC [#1 Exclusion - Theophylline B Attempt #5 (HarryS)] | 0.0104 | 0.0106 | 0.0164 | 0.0321 | 0.0119
GGUCUCUGGAGCGAUACCAGCUUGAUCGUACUAGCCAGGUACAUGAGGAUCACCCAUGUAAGCCCUUGGCAGCGCUCCAGAGACC [#1 Exclusion - Theophylline B Attempt #9 (HarryS)] | 0.0082 | 0.00925 | 0.0146 | 0.0223 | 0.0105
GGUGGGACUUGUGAUACCAGCCCAAUUCGAAUCGAAUUGCACAUGAGGAUCACCCAUGUCGGCCCUUGGCAGCAUGAGUAUUUAU [Ricerixe] | 0.152 |  | 0.149 |  | 0.313
GGUGUUACGUCGGCCGCCACUAUACUACAUGAGGAUCACCCAUGUCAUCCCUUCAAUUGGUAGCCUAGGACCGGGACAGAAUUCG [theeternabot_exclusion_MS2_Trp_B_8] | 0.0332 |  | 0.0552 | 0.0438 | 
GGUUACUCUACGGCCGCCACUGAACAUGAGGAUCACCCAUGUAAUGUUCAGUAGUCUUUAGACAACAGGACCGGGUAGUGUAACC [Tryptophan B 6] | 0.109 |  | 0.236 | 0.271 | 
GGUUACUCUACGGCCGCCACUGUAAUGUAAAGAUUCCUGUACAUGACAUGAGGAUCACCCAUGUGCAGGACCGGGUAGUGUAACC [Tryptophan B 20] | 0.126 |  | 0.208 | 0.225 | 
GGUUACUCUACGGCCGCCACUGUUAAAUAAUAAACCUGUACAUAAACAUGAGGAUCACCCAUGUACAGGACCGGGUAGUGUAACC [Tryptophan B 8] | 0.0276 |  | 0.041 | 0.035 | 
GGUUGAUGGUCGGCCGCCACUGUUGGUGCCAUGAGUUAAGUAUAGCACAUGAGGAUCACCCAUGUCAGGACCGGGACUCUACCCG [theeternabot_exclusion_MS2_Trp_B_16] | 0.0151 |  | 0.0196 | 0.0209 | 
GGUUGGUCGCAGGAUACCAGUCCACCCGUGAUACUGCUAAACAUGAGGAUCACCCAUGUCGACCCUUGGCAGCCUGUCCAUGCGU [theeternabot_exclusion_MS2_Theo_B_45] | 0.0188 |  | 0.0273 |  | 0.0171
GUACAUGAGGAUCACCCAUGUAUAGUUGAAGGAGCGACCAGAGGGUCAGGUAGGUCGCAGCACAUGGUGAAAACCCGUGUAUGCC [#1 Exclusion - Arginine A Attempt #21 (Inspired by Pi)] | 0.0404 | 0.0334 | 0.0617 | 0.0491 | 0.0276
GUCCAAAGGUCGGCCGCCACUGUAGAGUGUGUUCUUUCACAUGAGGAUCACCCAUGUUGUUAUUAUAGGACCGGGAUUGUAGGAC [#21 Exclusion Tryptophan B] | 0.0172 |  | 0.0311 | 0.0234 | 
GUCCACAUGAGGAUCACCCAUGUAAGUGGGCGAGGACCGGUACGGCCGCCACUCGACAUGUUGACGAAAAGUCAGCAUGAGGACA [#SwitchBubble 3 #GuTurnoff #Tail] | 0.0441 | 0.108 | 0.154 | 0.114 | 0.101
